Results published in US20070190075A1, “Hair growth stimulant composition” (Advangen, Inc. c/o National Institute of Advance Science …, priority 2003, published 2007).

System: C3H/He mouse
Test: Application to mouse after induction of growing stage, with hypodermic FGF-5 injection; shapes and sizes of hair follicles in skin slices
Type: in vivo
Conditions: FGF-5 5 μg hypodermically for 7 days; vs phosphate-buffered saline injected group
Protocol: The hair on the back of a C3H/He mouse (purchased from Japan SLC, Inc.) of an age of 8 weeks whose hair cycle was in the resting stage was pulled out to induce the growing stage. For 7 days from the day following the induction, FGF-5 of 5 μg was hypodermically injected at the same place every time, and around the injected place, the plant extracts from rose fruit, etc. (50% ethanol solutions), “tea extract” and “green tea extract” described in Example 1 were each further applied in an amount of 0.02 ml/cm^2 once a day. To a mouse of a control group, 50% ethanol was applied once a day in the same manner. Further, as a control to the FGF-5 hypodermic injection group, a mouse group wherein a phosphate-buffered saline solution was injected, was prepared.
On the day following the final application, the mouse was killed by dislocation of cervical vertebrae, and the skin at the applied place was taken. The skin thus taken was subjected to fixation with a 10% formalin aqueous solution, then treatment with an ethanol dehydration series, cleaning with xylene and embedding with paraffin. Using a microtome (available from Yamato), the skin was sliced in such a direction that the hair follicle from the top to the bottom could be completely visible, to prepare a skin slice of 4 μm. The resulting skin slice was extended on a silane-coated slide glass (available from Matsunami). […]

B1: FGF-5: Fibroblast growth factor 5, a cytokine that inhibits hair growth; injected hypodermically as challenge agent (protein, UniProt P12034 21-268, looked up)
Fibroblast growth factor 5: HGEKRLAPKGQPGPAATDRNPRGSSSRQSSSSAMSSSSASSSPAASLGSQGSGLEQSSFQWSPSGRRTGSLYCRVGIGFHLQIYPDGKVNGSHEANMLSVLEIFAVSQGIVGIRGVFSNKFLAMSKKGKLHASAKFTDDCKFRERFQENSYNTYASAIHRTEKTGREWYVALNKRGKAKRGCSPRVKPQHISTHFLPRFKQSEQPELSFTVTVPEKKKPPSPIKPKIPLSAPRKNTNSVKYRLKFRFG
growth of hair follicles after hypodermic FGF-5 injection: growth of the hair follicles was inhibited more than that in the group wherein a phosphate-buffered saline solution had been injected
